These sequences were tested on Saccharomyces cerevisiae (assay: transcriptional activation domain activity (GFP:mCherry ratio, weighted mean of sorted bins, harmonized to initial dataset scale) (arbitrary fluorescence ratio units); higher = stronger transcriptional activation). Settings: beta-estradiol 1 µM; induction time 4 h.
Outline: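 The activation activity of each tile is the read-weighted mean of bin median fluorescence, averaged across its barcodes and mapped linearly onto the scale of the initial dataset. Tiles were fused to an estradiol-inducible synthetic transcription factor, barcoded, and integrated at URA3 in yeast diploids carrying a GFP reporter. Induction used 1 uM beta-estradiol in SC for 4 hours at 30 °C, after which cells were sorted into 8 GFP:mCherry bins, and any tile with fewer than 50 reads was dropped.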

Sequence | transcriptional activation domain activity
MGMAYGVCCMYFLEPWWVGAISLVRFLGVGVFTLCMYFPSIMIFYFLLFFIIF | 51000
DLQRHLLKDHVSQDFKHPMEPLACNWEDCDFLGDDTCSIVNHINCQHGINFDI | 53200
KVKKKRRRSDSSDEDAIAALKAKRKKKKRADSDSDEEETSRKKSKSKRRRKAD | 42800
MDLVILMVYLNNNNNILIIIIMISTLIIHQLVQLIYLNLWLGCILWKTVLCSG | 42900
MIPLQVLSLIDAKNLILLLTKFFSCVALSSCLYWDSCYNLIHGYLVLYKIIYT | 59400
MLLLRVAGGRVMGCDVVGGFFFIFLFYLFIILGFVCCLVGWHVCWVFWFLVGF | 54300
EEAAAPAASKGQGTAAAASGRSRNRRRGAGEDGKGKAERGGEAMTSAPSPAKP | 13400
TSSSEESSNKGQRQLTVSIDSAAHHDNSTIPLDFMPRDALHGFDWSEEDDMSD | 39300
TIVLSAMQVGLATQFLVDDYAFSMASYVFSVFAILAPLSAIAAILFVLVLLFA | 49900
RGATPGRKPAAGGPRESAARAARGRGKGGGTGGEGRGRGRARGRGRTRGKRRT | 54900
ESDAGEGDKLSKKQKAESGKAVKPEATEGADKKDKKKDKKEKKKDKEAPAKAD | < 6570
AAMLLQRVDPNILGNAANVDKTLIHSMAWCLAKIMLFFDPSYITGLLQAYFKL | 46300
LVMWTVILCPVFSFPDRGHGSMLFFLFKLCLAMLLTYLLAMLWFHCVYCIVVF | 32700
SLPSTTPAGAPPTDAAKPAGGLFGNTSAQASTGSSGLFGNAAKPATTSASSAQ | 16100
SLADEKERGLLTGDDNRDEYLGRNLRGMIHEFRWQTLVLLKCCLLQPKMLFFS | 58100
MCYIIIVRWKRVWISCSCLAVIPVCPSIIPLLSILILSSLFFPFNPIFPIHGI | 34100
VPGEVSEAEANGETKAEDAPAAEGDAAKPKKKKKKAAKKAKSANGEATEGAPA | < 6570
MHYRYIAGFFFVHTFSCGQGLKDSNLILQCVPLYPQLHPFFLIFLHFFVFLSL | 70600
YRSRGIDEGRGKREAGRERERAERRSTKEAEKGGEGRWEGRSARRKEAGGKKG | 56700
LSVSVQGGQLQLRGLNITLTRCHDFMRNIFPLDFPQGRLLALILSLRLFFLST | 84500
MINCYAEVALFECCVMFILSPLPPFSLSPQYIFYTLLLYLHYQYFVYRNCALL | 71500

Sequence | transcriptional activation domain activity
GRAESPYNAKYLTGAFSSGSSNGAATATAASFAVFGMGSETVSSGRSPASNNA | 44500
MAEKRATSTAPGPSTSLQRGKACLRCRKRKMRCDGSKPACQQCVRAKKADGCE | 21500
AIRRSFAHVFCLCCIMEFPTFILGLGSLYPSLRSNVFFALSFFATRIVLHLML | 65700
RHRRHRRSRSRDREGGRDRGRDGRRDERREERKVERRNEGRDEGRVEGRGRDA | 40000
FAALRRGLLLIMLFALWDVRLLSELSFTNFVFPPAMFRVIAAQSPSLRAVKVS | 45300
LLNNELFQGPSLSDEVTDWFGASEDIGLEFVEPWTELIEQRYMQCGDGDNNNF | 151000
VISDSEDEKPPAKKAKTEEKAEKEEAKEDPEAKAKAVKEKEEAALKLATTRIL | 40700
SCLAVITWDVLNFLIVDCHIIFYRKFNWRVLVFIVARLSPYCFFLSLSISLTS | 60900
GAPHHNQFLDLNLGLEVYKETGRRVQFLVAAKSMQRKFVGLCCRLIHAIPVVR | 67400
FTKVIKLVSHFVLYFINICFILITIFFGYFYNLIKFYILLTLYLVSLRTLLSL | 47700
VGLYSLCIVSGILFPLYICCWREDFLIQNFVHRSLFTLVFMLLFLLGLIFLEF | 56900
EPHNDIILDLLFTLAYWHALAKLRLHTDFTLSKLEEVTMFLGRQLRYLRRVTC | 51800
AAASAPAPQNDGFSEVQHSRGGRGRGGHPSGERGGYRGRGRGGPRGDFGGRGR | 49600
LQLYLSSHHREMLVDIWDRLWPWMVFFHVNRGCIADPFMLRPHPCFNLLHFIV | 65600
GMPESTVEDVGGPSTATVEEGGPREVEATVQGVEEASTSAPVKRGRGRPRKTS | 30800
FRVNLMSCIVARLSKKSWIRSVSFPADLTGTASLEIVRLLNRMVKEKRFNIHP | 36300
YSPLYLAITFAVQYGISFTSMTAVVVRTILWYRHDITWTFTLIYSSLGVAAFV | 63700
TPVYIGPLDGGAGDAQHGRKGGESRFQITPRKTVRLGEDGKGRKVSVEQRIVC | 49400
QQPITYRKTIYDFFSWFLSLGFLNMMVPCFDLLYISRILVVWREVYYCHLIIA | 58100
GFRNFVERLTFCLLEDRVRIAMMQPEQPRYLHSFVSSVMGLNWMVQRWLCLPR | 47600
MHDAISFVLHLRLFAHVVGTSLSDGGPVFLALCMLPPLMRHFVSMSSNLWTTA | 70700

Sequence | transcriptional activation domain activity
TAANGKKSKGNKGGNAAGANANANAKANGNTKNGNGNSRNGNNKRMRALGSAM | 25700
LVVVLAVTKVMLLVLLIISYQILKQLLGIYFKCIHFLIYFFMLPYYGTLLSIL | 47500
VPLCIAVLLLLAPHPSILHVLLNYHYLTLHSTRYFLAHLFVIYTISFLAFSSL | 47400
TDMDLKILEDLCNISSLYEVPFGKHINHHDHNNAGNGCDGSSTGNNENGNQTM | 77600
SSRSRSVSRQPPSPHEEEQEDAEEREAEDGKGGGGEGEREHQSRESSPAPART | 27100
ASDYAIGQFRYLKRLILVHGEWSYARNANMIVNFFYKNILGIGVLWWFQIYCG | 39100
MCRFFIFLLSFLYDISVPILVFWSVHSPLLGWLFPGGGYTWRCLFFLCFLVYM | 51400
MYRLQCGVIYSLYVMCFMLLQMLLCVCVVSESFFFFLFLALIVWSPVYIILRV | 41900
LKIKLLVVWFWLLDAIHICMLCSSNWRDLIVHYGDRRTLDYIPPTTALAILFT | 79600
PWLLLIRYLALGTNLSMVVLTFGIFGLQWNRWISILTLRVYTMFNRKRVILWL | 61100
DRFQLKKFGGYQVEFINYDYGVLQDVMLFSLQRHVNCQEVGVKMLWTIIISEW | 49000
MAIDCLALHIPTCVNLWGHVLYVQLVTVMYPSHFFFSFYFIFIFILFLFFLFF | 14300
HLLVVAPLILAYLTVDDLSNLRLRLLGRCLRLLAISLAFLCACCCTSSSTPST | 58200
TIPGLIRTSPRFGIMLLCLLLSIIFLFTDVIFMIVVSRRGGMNPFWRLALVFK | 52600
DDPGATPHDPNDPKRPRACEACRGLKVKCEPDPSNPDGPCKRCAKAGRNCVVT | 16300
TVPVLVLVIYDWPRDRSNAYQVVLAISIWCWGVYQLLYIFLCGLYNPNFSTFR | 59700
LSAIVWQIVVDYFYDFVYLTSGLLWPPPTDFIMHTEHFYAGQLIVLLFFYTSL | 69200
MYLPKPGWLHVAGWLFILSLYLSIYIISYLISSYICNLCSFFCYLLLACILSF | 49600
FIVVLLTMEVIIHYLYMVAIFHVKPDWSQFTAAQLSMMGFLNLKHIWLKLLIP | 39000
SLGCTLVYVAHISYLSLLPRFDYSYNMAFNLTLGLTHNFLWLLYSLPSFCAIP | 52300
SSGGEKGGAKETEKTPKWYVDGIRYGRATDMKLVKHLISLRVHLSTASLVWIE | 86800

Sequence | transcriptional activation domain activity
LFLFFLFVFCAYPFWLVRCFLLALLLSLKDLVQIFLFLITTLCCDISEMWSFV | 42800
ACLFTMELILHNIYAVAIRSAGSPVWSSFTPFELSMFGFWNLIIVWMKLLLPW | 54700
SAPAPVRVVSLTKEEPVPEVKEEVKEEVKPAPAAAAPKPKPAAAKKETPAAVK | 13400
MIRDTPKSPSHPPSARSSSSRASSTTSCLSSTSTPAARTSSSSTTARTPVPRP | 28600
NSTIHNLFEVVLLPDLCGFCCFSMRFVVLIDLIGTLTLPVSVVYLVYLIYVIA | 46800
VIIVLIFAVACHLAFGTSVVVFIWRTALLRDISKLSRTNIMPMCISQVVADVL | 42900
VRYKGGLVGKHFKSLAQVMPYLIYDLVPRSVLDGWVMIGRLVVLLWHTLIEDT | 85100
AVDESSSEVKPAEPKADEGKPETASEENTAEASKPEAPKAEEANAEETAPAEG | 51300
FKDLLVEGFDNNRLIVAIPFVCKVLEQASKSRVFKPPNPWLMAILRLLVELYH | 51200
MRNEYYFFTSLSCIFSVLCFVSSFFYLVFSSLVLFFFFFLTGLFYLKFFCWVF | 39400
PHLFVNQGKLESYAGVVTRVVDLVLGIYVIDDCHMLILTYWPLLSPLTVLRTG | 51000
IISGAGSNMERELFYCLQNVRFRGPLLRVILLVLKACWLLKNLWVYWLIVYHR | 45800
FGVGMVPLGCQWACHLVALMVLFDVGWLCISRFILLDSMLLFFTFLTVFCMTK | 57900
ATAANEEGEEGEATPKKTPRKRAAKKQDVDGDASPKKKGRGKKVSDDETNVKS | < 6570
YFVLLPPTFILLAFPLLVWEFCWLSSSDFLCLLSMGFLFISLSFFFFFFLGNW | 40400
VRLLIRCTRRSLYFWACLCCSWGIILHSLFITLANFNVLQSYGSIVIIHLTWC | 74300
MIERCLMMGPSLGLYVFDLFLLEVGYLAFYAHFNLFSMFAYVFPFIPLVGIRC | 41500
KYAYGCDELIFNPLVHWWKMGPINKQLRTFVWSDAPVHYKVTMLSYMFSYYGI | 50100
NLMVIVLFVGNLRLVIENIQKYGVLICIRCHDVRESDLILGLSLYFLIPCHLL | 67300
LFLKIYMLNPLHMTRFADLLYQGAILNRVFQPYESHLQYLLQWMCDYNLYGCA | 65100

Source: the supplement of paper PMC12636428
